From the nanobody polyreactivity screen of Harvey et al. (2022)

test: yeast display, Sf9 membrane polyspecificity reagent, FACS + sequencing; frameworks hold sequencing errors
How it was run: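 Galactose induction of a Saccharomyces cerevisiae BJ5465 synthetic nanobody display library ran 36–48 hours. The cells were then stained for 1 hour at 4 °C with 10% biotinylated, detergent-solubilized Sf9 membrane reagent, pulled down on streptavidin microbeads and FACS-sorted into low and high (top ~1%) gates on expression and reagent-binding fluorescence. Labels for polyreactivity follow the gate of origin.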

Sequence	polyreactivity (PSR sort gate)
QVHLVDSGGGLVQAGGSLRLRCAASGSSFNPNAMGLYRQDPGKERELVAAITSGGSTYYADSVKGRFTISRDNAKNTVYLQINSLKQEDTAVYYCNKALTSKDYPVRTVERDYWGQGTKVTVSS	low polyreactivity
QVHLVDSGGGLVQAGGSLRLSCAASGFNFTYYGMGSYRQAPGKERELVAAISESCGSTYYADSVKGRFTISRDNAKNTVYLQMTSLKPEDTAVYYCAADVTKRASRDYYWGQGTQVTVSS	high polyreactivity
QVHLVDSGGGLVQAGGSLRLSCAASGRIIDLYAMGCYRQAPGKEWELVAVIDIRDTSTYYADSVKGRFTISRDNAKNTVYLEMNSLKPEDTSVYYCAADYLVYDWYTYGYWGQGTQVTVSS	high polyreactivity
QVHLVDSGGGLVQEGGSLRLSCAASGFISPKYRMGWYRQAPRKERELVAANTTSDGSTSYADSVKGRFRISRDNAKTTVYLQMISLKPEDSAVYYCAAGYESWRSWVRRYLRMDYWGQGTQVTLSS	high polyreactivity
QVHLVDSGGGLVQEGGSLRLSCGASGSTFQSYAMGWYRQSPGKERELVAVIDSGGRTYYADSVKGRFTISRDNAKNTVYLQINSLKPEDTAVYYCAARGPVGNGWRYRPWHDYWGQGTQVTVSS	high polyreactivity
QVHLVESAGGLVQAGGSLRLSCAASGITFSDNAMGWYRPAPGKETEVVAAISWGGGSTYYADSVKGRFTISRDNAKNTVYLQMNSLKPEDTAFYYCNAGGYLISDVDRVGYWGQGTQVTVSS	low polyreactivity
QVHLVESAGGLVQAGGSLRLSCAASGRIFTPYAMGWYRQAPGKERELVAVIRDGSTYYADSVKGRFTISRDNAKNTVYLQMNSLKPEDSAVYYCRYDIWVWWSGAYDYWGQGTQVTVSS	low polyreactivity
QVHLVESAGGLVQAGGSLRLSCDASGFIFPRYDMGSYRQAPGKEREMVAAISRRGGSTNYADSVKGRFTISRDNAKNTVYLQMNSLKPEATAVYYCNADTTGYSSYGYDYWGQGSQVTVSS	high polyreactivity
QVHLVESGAGLVKAGGSLRLSCAASGRTFRYNAMGWYRQQPGNERELVATITTRGGSTYYADSVKGRFTISRDNAKNTVYLQMNSLKPEDTAVYYCATKWPVYPTGYDYWGQGTQVTVSS	low polyreactivity
QVHLVESGAGLVQAGGILRLSCAASGRIFAHYALGWYRQAPGKERELVAAISRGGSTKYADSVKGRFTISRDHAKNTVYFQMNSLKPEDTAVYYCARQLWGSPYGAYYAGDYWGQGTQVTVSS	low polyreactivity
QVHLVESGGCLVQAGGSLRLSCSASGSIFGWYAMGWYRQAPGKEREFVAAISYSGGSTYYADSVKGRFTNSRDIAKITVYLQINSLKPEDTAVYYCNARPYWYFPYRVPEGYDYWGQGTQVTVSS	high polyreactivity
QVHLVESGGGIVQAGGSLRLSCAASGIIFHWYAMGWYRQAPGKERELVAAITQSGGSTSYADSVKGRFTISRDNAKNTVYLQMNSLKPEDTAVYNCSKDYAYTLWENYYAFNYWGQGTQVTVSS	low polyreactivity
QVHLVESGGGKVQAGGRLRLSCAASGSTFFRYAMGWYRQAPGKERELVAAISWSGGTTYYADSVKGRFPISRDIAKNTVYLQMNSLKPEDTAVYYCNAVRQGHILDYWGQGTQVTVSS	low polyreactivity
QVHLVESGGGLDQAGGSLRLICAASGSIFDYYAMGWYRQAPGKERELVAAIDNPDSTNYADSVKGRFTLSRDNAKNTVYLQMNSLKPEDTAVYYCAASSRTVWYPGVGYYYWGQGTQVTVSS	low polyreactivity
QVHLVESGGGLDQAGGSLRLSCAASASIFELYAMGWYRQAPGKERELVAVISTGGSTYYADSVKGRFTISRDNAKNTVYLQMNSLKPEDTAVYYCAKGGYVPKLEYWGQGTQVTVSS	high polyreactivity
QVHLVESGGGLDQAGGSLRLSSAASGTTYRYAMGCYRQAPGKAMELVATISSRGGTTSYADSVKGRFTISRDNAKNTVYLQMNSLKPEDTAVYSCAAGQFPKYFSDDADMDYWGQGPQVTVSS	low polyreactivity
QVHLVESGGGLFQAGGSLRLSCAPSGSITGYYAMGWYRQAPGKERDLVASIRNTGARTYYADSVKGRFTISRDNAKKTVYIQKNSLKAEDTAVYYCAADVKRDRVRGGDDWGQGTQVTVSS	low polyreactivity
QVHLVESGGGLLQAGGSLRLSFAASGTFYYYAMGWNRQAPGKERELVATISWDSASTYYADSVKGRFTISRDNAKNTVYLQMNSLKPEDTGVYYCAAGGSSSWAFNYWGQGTQVTVSS	low polyreactivity
QVHLVESGGGLVKAGGSLRLSCAASGLTFYVYTMGWYRQAPGKERELVAVISSGDSTYYADSVKGRFTISRDNAKNTVYLQMNSLKPEDTAVYYCAAGTHYLIVRYGLYDYWGQGTQVYVSS	low polyreactivity
QVHLVESGGGLVKAGGSLRLSCAASGSIFTWYAMGWYRQEPGKERELVAAITWRGGSTYYADSVKGRFTISRDNAKNTVYLQMNSLKPEDTAVYYCAAAGRSGKSLLQYGYWGQGTQVTVSS	high polyreactivity
QVHLVESGGGLVKAGGSLRLSCAAYGRIFSYNDMGWYRQSPGKDRELVAAISSSGGRTYYADSVKGSFTISRDNAKNTVYLQMNSMKPEDTALYYCNVLGYSYWGQGTQVTVSS	high polyreactivity
QVHLVESGGGLVQAAGSLRLSCAASGRTFNPNAIGWYRQAPGKERELVAVINVGGRTNYADSVKGRFTISRDNAKNTVYLQMNSLKPEDSAVYYCAAISSRNFDYWGQGTQVTVSS	high polyreactivity

Sequence	polyreactivity (PSR sort gate)
QVHLVESGGGLVQAGASLRLSCAASGSIFVGYAMGWYRQAPGKERELVASISSGDDTYADSVKGRFTISRDNAKNTVYLQMNSLKPEDTAVYYCAKDYISVDWAYDYWGQGTQVTVSS	low polyreactivity
QVHLVESGGGLVQAGCSLRLSCAASGFTFYDYAMGWYRQAPGKERELVAGISRGDSTYYADSVKGRFTISRDNAKNTVYLQKNSLKPEDTSVYYCAADARSYDALDYSDLLYDYWGHGTQVTVSS	low polyreactivity
QVHLVESGGGLVQAGDSLRLSCASSGIIFYDYAMGWYRPAPGKERELVAAITSSGGSTYYADSVKGRFTISRDNAKNTVYLQMNSLIPEDTAVYYCAAATRGSGRRYDYLGQGTQVTVSS	high polyreactivity
QVHLVESGGGLVQAGGCLRLSCAASGSIFSVHAMGWYRQAPVKERELVAAISGDGDSTYYADSVKGRFTISRDNAKNTVYLQMNSLKPEDTAVYYCAVEPNVYFSVFVLFPSDYWGQGSQVTVSS	low polyreactivity
QVHLVESGGGLVQAGGGLRLSSAASGFIFSPNAMGWYRQAPGKEREYVAAISYSGTSTSYADSVKGRFTISRDNAKNTVYLQMNSLKPEDTAVYYCAAGRSNSYSPRRRVTYGYNYWGQGTQVTVSS	high polyreactivity
QVHLVESGGGLVQAGGRLRLSCAASGYIFSVYAMGLYRQAPGKERELVAAISSGGSTYYADSLKGRLTISRDNAKYTVYLQMNSLKPEDTAVYYCAAESVYVYWYYVDYDYWGQGTQVTVSS	high polyreactivity
QVHLVESGGGLVQAGGSHRLSCAASGLNFPPNAMGWYRQAPAKESELVASITRSGGSTYYADSVKGRFTISRDNAKNTVYLQMNSLKRDDTAVYYCAAYLDTSRYGVLYDYWGQGTQVTVSS	low polyreactivity
QVHLVESGGGLVQAGGSIRLSCAASGFIFGSYAMGWYRPAPGKERELVAVISASGGGTYYADSVKGRFTISRDNAKYTVYLQMNSLKPEDTAVYYCAAKGVRGFAGYGYWGQGTQVTVSS	high polyreactivity
QVHLVESGGGLVQAGGSLPLSCAASGIIFGGYDMGWYRPAPGIERELVAAISWSGGSTYYADSVKGRFTISRDNAKNTVYLPMNSLKPEDTAVYYCAAAYYAPTRVYYYWGQGTQVTVSS	low polyreactivity
QVHLVESGGGLVQAGGSLRISCAASGLTFQRYAMGWYRQAPGKERELVASITGNGGSTYYADSVKGRFTISRDNAQNSVYLQMNSLKPEDTAVFYCNARRYVRTSQQPLYDYWGQGTQVTVSS	high polyreactivity
QVHLVESGGGLVQAGGSLRLICAASGRILYLYAMGWYRQAPGKERELVARISQRDGSTYYADSVKGRFTISRDNAKNTVYLQMNSLKPEDTAVYYCNADFYLGSYGYSYDYWGQGTQVTVSS	low polyreactivity
QVHLVESGGGLVQAGGSLRLICAASGSIFRRYAMGWYRQAPGKERELVASISSRGTRTYYADSVTWRFTISRDNAKNTVYLQMNSLKPEDTAVYYCAASYYTPYDYLGQGTQVTVSS	high polyreactivity
QVHLVESGGGLVQAGGSLRLSCAASGDTFVKYAMGWYRQAPGKERELVAAISSGGRTYYADSVKGRFTISRDNAKNTVYLQMNSLKPEDTAVYFCNAVRPYRLASYDYWGQGTQVTVSS	high polyreactivity
QVHLVESGGGLVQAGGSLRLSCAASGFIFDFNTMGWYRQAPGKETEFVAAISGSGGRTYYADSVKGRFTISRDNAKNTVYLQMNSLKPEDTAVYYCAAYKRYYYGYDYWGQGTQVTVSS	high polyreactivity
QVHLVESGGGLVQAGGSLRLSCAASGFIFSVYAMGWYRQAPGKERELVAAINRSGSNTYYADSVKGRFTISRDNAKNTVYLQMNSLKPEDTAVYYCATLQGFWYYPPYIKTVQYGYWGQGTQVTVSS	high polyreactivity
QVHLVESGGGLVQAGGSLRLSCAASGFIFWENGMGWYRQAPGKERELVAAISSGGGRTYYADSVKGLFTISRDNAKNTVYLQMNSLKPEDTAFYYCNRARYYREFDYWGQGTQVTVSS	high polyreactivity
QVHLVESGGGLVQAGGSLRLSCAASGFTFDYNAMGWYRQAPGKEMELVAAISGSGGSTYYADSVKGRFTISRDNAKNTVYLQMNSLKPEDSSVYYCNAGRVTRRDTFDYWGQGTQVTVSS	high polyreactivity
QVHLVESGGGLVQAGGSLRLSCAASGFTFFYYAMGWYRPAPGKERELVAAINSGDNTNYADSVKGRFTISRDNAKNTVYLLMNSLIPEDTAVYYCAAQDYARGVVPGRRAMGYWGQGTQVSVSS	high polyreactivity
QVHLVESGGGLVQAGGSLRLSCAASGFTFGVYAMGWYRQAPGKERELVAAISRRGTSTYYADSVKGRFTISRDTAKYTVYLQMNSLKPEDTAVYYCNARRYQVTVDHWGQGTQVTVSS	high polyreactivity
QVHLVESGGGLVQAGGSLRLSCAASGFTFRGYAMGWYRQAPGTERELVAAVSGSGGRTHYADSVKGRFTISRDNAKNTVYLQMNSLKPEDTAVYYCNARGRASATGRRGRPDPFGYWGQGTQVTVSS	high polyreactivity
QVHLVESGGGLVQAGGSLRLSCAASGFTFRRNAMGWYRQAPGKERELVAAITRSGGVTYYADSVKGRFTISRDNAKNTVYLQMNSMKPEDTAVYYCATQARLYGGYDRYAGSYDYWGQGTQVTVSS	high polyreactivity
